Data on 30 sequences can be found in the nanobody polyreactivity screen of Harvey et al. (2022).

A short description of the series: yeast display, Sf9 membrane polyspecificity reagent, FACS + sequencing; frameworks hold sequencing errors. The method, boiled down: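 A synthetic nanobody library was expressed on Saccharomyces cerevisiae BJ5465 by galactose induction for 36–48 hours. The library was stained for 1 hour at 4 °C with 10% biotinylated, detergent-solubilized Sf9 membrane reagent and enriched with streptavidin microbeads before FACS. Low and high (top ~1%) gates were set on anti-HA fluorescence for expression and streptavidin fluorescence for reagent binding, and each polyreactivity label reflects the gate of origin.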
Take “QVQLVESGGGLVQAGGSLRLSCAASGSIFGGYGMGWYRQAPGKERELVAVITKRGGSTYYADSVKGRFTISRDNAKNTVYLQMNSLKPEDTAVYYCNADYRRYPEFDYWGQGTQVTVSS”: the “polyreactivity (PSR sort gate)” value is “high polyreactivity”.
For the sequence “QVQLVESGGGLVQAGGSLRLSCAASGSIFGGYTMGWYRQAPGKERELVAAISARGGNTYYADSVKGRFTISRDNAKNTVYLQMNSLKPEDTSVYYCAKVRYTQSYRGYGFWGQGTQVTVSS”, the “polyreactivity (PSR sort gate)” value is reported as “high polyreactivity”.
In the case of “QVQLVESGGGLVQAGGSLRLSCAASGSIFGGYVMGWSRQAPGKEWELVAAITSGGSTYYADSVKGRFTISRDNAKNTVYLQMNSLKPEDTAVYYCNADPYTYSYGMYYWGQGTQVTVSS” it was “low polyreactivity”; in that of “QVQLVESGGGLVQAGGSLRLSCAASGSIFGGYVMGWYRQAPGKERELVAAITSGGSTYYADSVKGRFTISRDNAKNTVYLQMNSLKPEDTAVYYCNADPYTYSYGMYYWGHGTQVTVSS”, “low polyreactivity”.
Next, “QVQLVESGGGLVQAGGSLRLSCAASGSIFGINAMGWYRQAPGKERELVAAISGSTSRTYYADSVKGRFTISRDTAKNTVYLQMNSLKPEDTAVYYCARVKGVYHFSILDYWGQGTQVTVSS”: “high polyreactivity”; “QVQLVESGGGLVQAGGSLRLSCAASGSIFGIYAMGWYRQAPGKERELVAAIRVSDGRTYYADSVKGRFTISRDNAKNTVYLQMNSLKPEDTAVYYCAAESQSSYGPYDYWGQGTQVTVSS”: “low polyreactivity”.
In the case of “QVQLVESGGGLVQAGGSLRLSCAASGSIFGKYAMGWYRQAPGKERELVAAISDSGSITYYADSVKGRFTISRDNAKNTVYLQMNSLKPEDTAVYYCAAERYLLWGFEENYWGQGTQVTVSS” it was “high polyreactivity”; in that of “QVQLVESGGGLVQAGGSLRLSCAASGSIFGKYAMGWYRQAPGKERELVAAISKRGGSTYYADSVKGRFTISRDNAKNTVYLQMNSLKPEDTAVYYCAATPVYSGPYDYWGQGTQVTVSS”, “high polyreactivity”.
Consider “QVQLVESGGGLVQAGGSLRLSCAASGSIFGKYAMGWYRQAPGKERELVAAISRSGSRTFYADSVKGRFTISRDNAKNTVYLQMNSLKPEDTAVYYCNALSGDSYSYYGYDSWGQGTQVTVSS”, for which the “polyreactivity (PSR sort gate)” value is “high polyreactivity”.
Regarding “QVQLVESGGGLVQAGGSLRLSCAASGSIFGLYAMGWYRQAPGKERDLVAVITYYVGTTYYADSVKGRFTISRDTAKNTVYLQMHSLKPEDTAVYYCAADLYWYYPWSAYYGEYDYWGQGTQVTVSS”, the “polyreactivity (PSR sort gate)” value is listed as “low polyreactivity”.
Next, “QVQLVESGGGLVQAGGSLRLSCAASGSIFGLYAMGWYRQAPGKERELVAAISTSSGRTYYADSVKGRFTISRDNAKNTVYLQMNSLKPEDTAVYYCAASGAWWSLHYAGDYWGQGTQVTVSS”: “high polyreactivity”; “QVQLVESGGGLVQAGGSLRLSCAASGSIFGLYAMGWYRQAPGKERELVATISKSGVSTYYADSVKGRFTISRDNAKNTVYLQMNSLKPEDTAVYYCNADISRDKDFDYWGQGTQVTVSW”: “low polyreactivity”; “QVQLVESGGGLVQAGGSLRLSCAASGSIFGNYAMGWYRQAPGKERELVAAITSSGGTYYADSVKGRFTISRDNAKNTVYLQMNSLKPEDTAVYYCAARYYSYRHQSVKYGYWGQGTQVTVSS”: “high polyreactivity”.
In the case of “QVQLVESGGGLVQAGGSLRLSCAASGSIFGPYAMGWYRQAPGKERELVAAITWTGGRTYYADSVKGRFTISRDNAKNTVYLQMNSLKPEDNAVYYCAADYSPSTWYLYYTLYYYWGQGTQVTVSS”, the “polyreactivity (PSR sort gate)” value is listed as “low polyreactivity”.
With “QVQLVESGGGLVQAGGSLRLSCAASGSIFGPYAMGWYRQAPGKERYADSVKGRFTISRDNAKNTVYLQMNSLKPEDTAVYYCNADTSRWRYSQPIYDYWGQGTQVTVSS”, the “polyreactivity (PSR sort gate)” value is reported as “low polyreactivity”.
In the case of “QVQLVESGGGLVQAGGSLRLSCAASGSIFGQNAMGWYRQAPGKERELVAAITSGAGITYYADSVKGRFTISRDNAKNTVYLQMNSLKPEDPAVYYCNAVPSWSPSPLFDYWGQGTQVTVSS” it was “low polyreactivity”; in that of “QVQLVESGGGLVQAGGSLRLSCAASGSIFGQYAMGWYRQAPGKERELVAAISTRGGSTRYADSVKGRFTISRDNAKNTVYLQMNSLKPEDTAVYYCAARVPYIRHLAVDYWGQGTQVTVSS”, “high polyreactivity”; in that of “QVQLVESGGGLVQAGGSLRLSCAASGSIFGRNAMGWYREAPGKERVLVAAINSGGSTNYADSVKGRFTISRDNAKNTVYLQMNSLKPEDTAVYYCAARTYSSGRYYGYVAFYYWGQGTQVTVSS”, “high polyreactivity”.
In the case of “QVQLVESGGGLVQAGGSLRLSCAASGSIFGRNAMGWYRQAPGKERELGAAMTGSGTSTYADSVKGRFTISRDNAKNTVYLQMNSLKPEDTAVYYCAAGVTTVEYEYCGQGTQVTVSS” it was “low polyreactivity”; in that of “QVQLVESGGGLVQAGGSLRLSCAASGSIFGRNAMGWYRQAPGKERELVAAISFIGGSTYYADSVKGRFTISRDNAKNTVYLQMNSLKPEDTAVYYCATSVFYYGSLYGYWGQGTQVTVSS”, “high polyreactivity”.
For “QVQLVESGGGLVQAGGSLRLSCAASGSIFGRNAMGWYRQAPGKERELVARISSRGGSTYYADSVKGRFTISRDNAKNTVYLQMNSLKPEDTAVYYCNRDRTWQTNDYWGQGTQVTVSS”, the “polyreactivity (PSR sort gate)” value was “high polyreactivity”.
Next, “QVQLVESGGGLVQAGGSLRLSCAASGSIFGRNDMGWYRQAPGKERELVARITRGGSTNYADSVKGRFTISRDNAKNTVYLQMNSLKPEDTAVYYCAKEFKYWGYPYDYWGQGTQVTVSS”: “low polyreactivity”; “QVQLVESGGGLVQAGGSLRLSCAASGSIFGRYAMGWYRQAPGKERELVAAISYSGGSTYYADSVKGRFTISRDNAKNTVYLQMKSLKPEDTAFYYCAAEPSYYTRWFDGHYYYWGQGSQVTVSS”: “high polyreactivity”; “QVQLVESGGGLVQAGGSLRLSCAASGSIFGRYAMGWYRQAPGKERELVATITFRDTSTYYADSVKGRFTISRDTAKYTVLLLMNSLKPEDTAVYYCAAVRADLWDIARYDYWGQGTQETVSS”: “low polyreactivity”.
As for “QVQLVESGGGLVQAGGSLRLSCAASGSIFGRYAMGWYRQAPGKESELVAAISANGGSTYYADSVKGRFTISRDNAKNTVYLQMNSLKPEDTAVYYCAAGSTRGYKLGYWGQGTQVTVSS”, the “polyreactivity (PSR sort gate)” value is given as “high polyreactivity”.
For “QVQLVESGGGLVQAGGSLRLSCAASGSIFGRYGAMGWSRQSPGKERELVAAIRTSGVSTYYADSVKGRFTISRDNAKNTVYLQMNSLKPEDTAVYYCAARAGRYRWTRFDYWGQGTQVTVSS”, the “polyreactivity (PSR sort gate)” value is given as “low polyreactivity”.
In the case of “QVQLVESGGGLVQAGGSLRLSCAASGSIFGRYGMVCYRQAPGKERQLVAAITSGTGTNYADSVKGRFTISRDNALNTVYLQMNSLKPEDTAVYYCNALRLRGNYEYGYWGQGTQVTLSS” it was “low polyreactivity”; in that of “QVQLVESGGGLVQAGGSLRLSCAASGSIFGRYTMGWYRQAPGKERELVAAISSSGGRTYYADSVKGRFTISRDNAKNTVYLQMNSLKPEDTAVYYCNKGYGYEYYWGQGTQVTVSS”, “low polyreactivity”.
In the case of “QVQLVESGGGLVQAGGSLRLSCAASGSIFGRYTMGWYRQAPGKERELVAAISWGGGSTYYADSVKGRFTISRDNAKNSVYLQMNSLKPEDTAVYYCAADTYWAIDPIYDYWGQGTQVTVSS”, the “polyreactivity (PSR sort gate)” value is given as “low polyreactivity”.
In the case of “QVQLVESGGGLVQAGGSLRLSCAASGSIFGSNAMGWYRQAPGKERELVAAISSRAGRTYYADSVKGRFTISRDNAKNTVYLQMNSLKPEDTAVYYCAALYWVYRNRWLYDYWGLGTQVTVSS” it was “high polyreactivity”.
